Measurements as given in publication doi:10.1101/820647.

Tests used:
Assay in all cases: ITC
[1] = target: CDY1 chromodomain (aa 2-63) (human) (UniProt Q9Y6F8)
[2] = target: CDYL1b chromodomain (aa 1-66) (human) (UniProt Q9Y232)
[3] = target: CDYL2 chromodomain (aa 2-62 or 2-64) (human) (UniProt Q8N8U2)
Sequence of UniProt Q8N8U2 (Q8N8U2 2-64): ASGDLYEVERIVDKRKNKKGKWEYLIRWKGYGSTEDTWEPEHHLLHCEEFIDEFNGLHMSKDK

Sequence of UniProt Q9Y6F8 (Q9Y6F8 2-63): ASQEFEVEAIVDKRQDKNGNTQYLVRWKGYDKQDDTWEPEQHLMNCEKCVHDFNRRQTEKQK

| Substance | Kd [1] | fold more potent than to CBX7 [2] | fold more potent than to CBX7 [3] |
| --- | --- | --- | --- |
| H3K9me3 peptide | 0.5 µM | – | – |
| H3K27me3 peptide (canonical histone H3) | 93 µM | – | – |
| H3tK27me3 peptide (testis-specific histone H3t) | 32 µM | – | – |
| UNC4850 (peptide) | – | 10 fold | 10 fold |
